Laboratory results taken from US20250277196A1, “EPSPS MUTANTS AND METHOD OF ITS USES” (CROPEDIT BIOTECHNOLOGY INC., priority 2021, published 2025).

Assays:
E. coli lacking EPSPS = assay: Glyphosate resistance comparison among rice EPSPS mutants: growth of transformed E. coli on M9 medium with different glyphosate concentrations; format: cell-based, Escherichia coli
Description: a) PCR system: According to the primer and template mixed PCR system corresponding to the target vector in the above table, the forward primer was 1.25 μl, the reverse primer was 1.25 μl, the template plasmid was 2 μl, the Q5 PCR master mix was 12.5 μl, and ddH2O was […].
b) PCR reaction conditions were as following: the annealing temperature was set according to the annealing temperature corresponding to the target carrier in the above table.
c) Took out 5 μl of the obtained PCR product and added it to the loading buffer for agarose gel electrophoresis. A band with a size of about 4.5 kb was considered successful.
d) Used NEB's KLD enzyme mixture to remove the template and connected the PCR product. The connection system was 5 μl KLD buffer, 1 μl KLD MIX, 1 μl PCR product, and ddH2O 3 μl. After ligating at room temperature for 5 min, transformed it into E. coli.
e) The ligation product was transformed into Dh5a competent E. coli lacking EPSPS. After resuscitation, the cells were washed twice with M9 medium, and then the washed cells were spread on M9 medium and cultured for 48 h. Sequenced the grown single colony (Tsingke Biological Technology Co., Ltd.), and selected the correct mutant to save for future use.
OsWt represents the wild type rice EPSPS(SEQ ID NO:2). […] OsGA represents the mutated rice EPSPS with mutation G172A. (SEQ ID NO:7) OsPS represents the mutated rice EPSPS with mutation P177S. (SEQ ID NO:8) OsGAPS represents the mutated rice EPSPS with mutation G172A and P177S. (SEQ ID NO:9) OsGAVA represents the mutated rice EPSPS with mutation G172A and V403A(SEQ ID NO:4). OsPSVA represents the mutated rice EPSPS with mutation P177S and V403A(SEQ ID NO:5). OsGPV represents the mutated rice EPSPS with mutation G172A, P177S and V403A(SEQ ID NO:6). OsTIPS represents the mutated rice EPSPS with mutation T173I and P177S. (SEQ ID NO: 35). OsTIPT represents the mutated rice EPSPS with mutation T173I and P177T. (SEQ ID NO:36). OsTIPSVA represents the mutated rice EPSPS with mutation T173I, P177S and V403A. (SEQ ID NO:37). OsTIPTVA represents the mutated rice EPSPS with mutation T173I, P177T and V403A. (SEQ ID NO:38). CP4 represents the wild type EPSPS from Agrobacterium tumefaciens. (SEQ ID NO:39)
Each product obtained from the above steps were transformed into E. coli lacking EPSPS. By detecting the growth of the transformed Escherichia coli on M9 medium containing different glyphosate concentrations (0 mM, 0.5 mM, 2 mM, 4 mM, 5 mM, 25 mM, 75 mM, 100 mM), the 1 mM glyphosate here was equivalent to […] glyphosate acid, the glyphosate resistance of rice EPSPS mutants was verified.

[1] = tested on: T1 generation transgenic rice; assay: Glyphosate resistance of T1 generation transgenic rice seedlings (FIG. 10); format: in vivo; details: 100 ppm glyphosate aqueous solution (Roundup), cultivated 10 days; wild-type rice control significantly inhibited and died
From the text: The rice seed used in this example is RICE KENG XIANG DA008-169, which is publicly available.
Nucleic acid sequence encoding OsGPV mutants (comprising G172A, P177S and V403A) (SEQ ID NO:6) were inserted into the plant expression vector according to the conventional methods to obtain the pk510 vector expressing the OsGPV gene. (see FIG. 9)
1) The transgenic vector pk510 was introduced into Agrobacterium EHA105 to obtain recombinant Agrobacterium.
2) One to five days before the transformation experiment, recombinant Agrobacterium was inoculated on YEB solid medium containing 50 mg/L kanamycin and 15 mg/L rifampicin. The medium was sealed in the dish with 3M tape; kept at temperature at 28° C. in an inverted dish orientation and cultured it in dark for one to five days.
3) The bacteria was scraped at the “Z”-shaped tail with the inoculation ring, and gently suspended in […] NB liquid medium containing 2 mg/L 2,4-dichlorophenoxyacetic acid to make the concentration of the bacteria liquid reach approximately O.D. 600=0.1, and then reserve the make Agrobacterium infection solution.
4) After removing the rice seed coat, the rice seed was placed in a triangular flask, washed 3 times with sterile water. 75% alcohol was added to immerse the seeds, shaken gently for 1 min, and the alcohol discarded. […]

B1: OsGPV: mutated rice EPSPS with mutation G172A, P177S and V403A (SEQ ID NO:6) (protein)
chain: MAAKAEEIVLQPIREISGAVQLPGSKSLSNRILLLSALSEGTTVVDNLLNSEDVHYMLEALKALGLSVEADKVAKRAVVVGCGGKFPVEKDAKEEVQLFLGNAATAMRSLTAAVTAAGGNATYVLDGVPRMRERPIGDLVVGLKQLGADVDCFLGTECPPVRVKGIGGLPGGKVKLSGSISSQYLSALLMAAPLALGDVEIEIIDKLISIPYVEMTLRLMERFGVKAEHSDSWDRFYIKGGQKYKSPGNAYVEGDASSASYFLAGAAITGGTVTVQGCGTTSLQGDVKFAEVLEMMGAKVTWTDTSVTVTGPPREPYGKKHLKAVDVNMNKMPDAAMTLAVVALFADGPTAIRDVASWRVKETERMVAIRTELTKLGASVEEGPDYCIITPPEKLNITAIDTYDDHRMAMAFSLAACADVPVTIRDPGCTRKTFPNYFDVLSTFVRN
modifications: This sequence is synthesized in lab.
glyphosate resistance compared with CP4 EPSPS (E. coli lacking EPSPS; 100 mM glyphosate medium, FIG. 2): comparable
glyphosate concentration of the medium on which the strain can grow (E. coli lacking EPSPS; M9 medium, tested 0, 0.5, 2, 4, 5, 25, 75, 100 mM glyphosate, FIG. 2, FIG. 3): 100 mM
growth of transgenic rice seedlings in glyphosate solution [1]: not significantly affected
